Ends that are not written are not given here. A value given as a limit tells only on which side of the number the result lay.

Experiment [1] addresses Protein A affinity purified KST4. The experiment can be described thus: competitive inhibition ELISA, Protein A purified KST4 at 1:5000 (FIG. 7B). Here is the method: We collected serum from each of three immunized rabbits (KST3, KST4, KST5). KST3 and 4 are sera from rabbits immunized with hepcidin-KLH conjugates produced using EDC chemistry, while KST5 is sera from conjugates produced using DSS chemistry (FIG. 7A). […] Additional validation of the anti-mature, folded, bioactive hepcidin antibodies described above was performed and their utility in competitive ELISA examined in the presence of varying dilutions of bass serum (FIG. 8 A-C). Note increasing inhibition of signal with increasing amounts of synthetic hepcidin added to tracer. Note the effects of serum on competitive ELISA standard curve (FIG. 8 C) generated with data from (FIG. 8 B) between 10-100 ngs of mature, folded, bioactive hepcidin. […] FIG. 9 is an example of a routine standard curve where hepcidin competitor concentrations are expressed as ng/ml, rather than total ngs added to the competition.
Background: In an ELISA, binding on a coated surface is turned into a signal by an enzyme label.

Experiment [2] has as its target polyclonal anti-hepcidin rabbit sera (unpurified serum, source rabbit not named). The experiment can be described thus: competition ELISA with synthetic hepcidin as competitor.
The target of experiment [3] is Protein A affinity purified antibodies (anti-hepcidin rabbit sera, source serum not named). Described as above.
For experiment [4], the target named is affinity purified rabbit anti-mature, folded, bioactive hepcidin antibody (KST4). Described as above.

For the molecule GCRFCCNCCPNMSGCGVCCRF-OH (disulfide (positions not given here), also called synthetic hepcidin) [synthetic, mature, refolded, bioactive bass hepcidin], in experiment [1], the IC50 is around 2.5 ng/mL. Moreover, the “percent of signal competed away” value in experiment [2] was 65%; in experiment [3], around 80%; in experiment [4] it was above 90%.

As usually defined, the IC50 is the midpoint of a concentration-inhibition curve. A lower IC50 goes with higher potency.
